# Assay results: patent publication US20250313645A1 (COMPASS THERAPEUTICS, published 2025)
# B1: mAb1 Fab (Fab, V domains shown)
# VH: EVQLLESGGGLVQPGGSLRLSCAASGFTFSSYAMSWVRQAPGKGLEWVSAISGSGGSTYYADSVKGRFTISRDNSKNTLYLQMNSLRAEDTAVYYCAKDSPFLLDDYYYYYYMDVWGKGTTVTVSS
# VL: DIQMTQSPSSVSASVGDRVTITCRASQGISSWLAWYQQKPGKAPKLLIYAASSLQSGVPSRFSGSGSGTDFTLTISSLQPEDFATYYCQQGHLFPITFGGGTKVEIK
# Legend:
# [1] = molecular target: T1, Fc-, mouse IgG2a-, or His-tagged human CD137 (human, UniProt Q07011 24-186); experiment: BLI (Octet HTX), tagged CD137 on biosensor, Fab 0-500 nM in solution, global 1:1 fit, apparent KD; lower end of the printed range 50-70 nM
# T1 construct: Sources were ACRO Biosystems, Sino Biological and internal; not shown: Fc, mouse IgG2a or His tag
# Description: (§1) The anti-CD137 antibodies were further tested for their binding to CD137 from multiple species. Specifically, mAb1, mAb8 and mAb10 were analyzed for binding to human, mouse, cynomolgus and canine CD137. Kinetic experiments were performed on OCTET HTX (ForteBio) in kinetics buffer (1×PBS, pH 7.4, 0.1 mg/ml BSA, and 0.002% Tween 20). Fc-, mouse IgG2a-, or His-tagged CD137 (human, mouse, cyno or canine) were loaded for 5 minutes on pre-hydrated biosensors, AHC, AMC or NTA respectively. The sensors were then dipped into Fabs (0, 5.12, 12.8, 32, 80, 200 and 500 nM) for 5 minutes of association, following by 15 minutes of dissociation. Results were analyzed with ForteBio Data Analysis 9.0 and fit globally to a 1:1 binding model to determine the apparent KD. KD for human and mouse CD137 binding were confirmed by using antigens from different sources (ACRO Biosystems, Sino Biological and internal).
# [2] = molecular target: T1, Fc-, mouse IgG2a-, or His-tagged human …; experiment: BLI (Octet HTX), tagged CD137 on biosensor, Fab 0-500 nM in solution, global 1:1 fit, apparent KD; upper end of the printed range 50-70 nM
# Description: as §1
binder,measurement,setting,value
B1,Kd,[1],≥ 50 nM
same,Kd,[2],≤ 70 nM
